Assay results as given in the Immune Epitope Database (IEDB).

Experiments:
HLA-B*40:01 = assay: IEDB peptide-MHC binding, purified MHC/direct/fluorescence; filed as Kd, often an IC50 or EC50 that approximates it; ≥ and ≤ were set here for values at or beyond the usual limits of such assays
HLA-A*02:01 [1] = assay: as above
HLA-B*27:05 = assay: as above
HLA-A*69:01 = assay: as above
HLA-B*07:02 = assay: as above
HLA-A*03:01 = assay: as above
HLA-B*35:01 = assay: as above
HLA-B*08:01 [2] = assay: as above
HLA-A*01:01 = assay: as above
HLA-B*44:02 = assay: as above
HLA-B*15:01 = assay: as above
HLA-A*11:01 [3] = assay: as above
HLA-A*31:01 = assay: as above
HLA-B*58:01 = assay: as above
HLA-A*26:01 = assay: as above
HLA-A*24:03 = assay: as above
HLA-B*46:01 = assay: as above
HLA-A*02:12 = assay: as above
HLA-A*68:02 = assay: as above
HLA-B*57:01 = assay: as above
HLA-A*23:01 = assay: as above
HLA-B*15:17 = assay: as above; details: source organism: Vibrio cholerae O139
HLA-B*27:03 = assay: as above
HLA-A*02:16 = assay: as above; details: source organism: Vibrio cholerae O139
HLA-A*02:03 = assay: as above; details: source organism: Vibrio cholerae O139
HLA-B*18:01 = assay: as above
HLA-B*51:01 = assay: as above
HLA-A*02:19 = assay: as above
HLA-A*29:02 = assay: as above; details: source organism: Vibrio cholerae O139
HLA-A*02:11 = assay: as above; details: source organism: Vibrio cholerae O139
HLA-B*08:01 [4] = assay: IEDB peptide-MHC binding, purified MHC/competitive/fluorescence; ≥ and ≤ were set here for values at or beyond the usual limits of such assays; details: source organism: Zaire ebolavirus
HLA-A*11:01 [5] = assay: as above; details: source organism: Zaire ebolavirus
HLA-A*02:01 [6] = assay: as above; details: source organism: Zaire ebolavirus
HLA-C*03:03 = assay: IEDB peptide-MHC binding, purified MHC/direct/fluorescence; filed as Kd, often an IC50 or EC50 that approximates it; ≥ and ≤ were set here for values at or beyond the usual limits of such assays
HLA-A*24:02 = assay: as above; details: source organism: Amur virus
HLA-C*14:02 = assay: as above; details: source organism: Mycobacterium tuberculosis str. Haarlem
HLA-C*15:02 = assay: as above; details: source organism: Mycobacterium tuberculosis str. Haarlem
HLA-B*39:01 = assay: as above; details: source organism: Cryptosporidium parvum Iowa II
[7] = source organism: Vibrio cholerae
[8] = source organism: Vibrio cholerae O139
[9] = source organism: Giardia lamblia ATCC 50803
[10] = source organism: Yersinia pestis
[11] = source organism: Escherichia coli O157:H7
[12] = source organism: Salmonella enterica subsp. enterica serovar Typhimurium
[13] = source organism: Cryptosporidium parvum Iowa II

Sequence: DTDISQLHH
- Kd (HLA-B*40:01; [7]): ≥ 20 µM
- Kd (HLA-A*02:01 [1]; [7]): ≥ 20 µM
- Kd (HLA-B*27:05; [7]): ≥ 20 µM
- Kd (HLA-A*69:01; [7]): ≥ 20 µM
- Kd (HLA-B*07:02; [7]): ≥ 20 µM
- Kd (HLA-A*03:01; [7]): ≥ 20 µM
- Kd (HLA-B*35:01; [7]): 0.542 µM
- Kd (HLA-B*08:01 [2]; [7]): ≥ 20 µM
- Kd (HLA-A*01:01; [7]): 0.358 µM
- Kd (HLA-B*44:02; [7]): ≥ 20 µM
- Kd (HLA-B*15:01; [7]): ≥ 20 µM
- Kd (HLA-A*11:01 [3]; [7]): ≥ 20 µM
- Kd (HLA-A*31:01; [7]): ≥ 20 µM
- Kd (HLA-B*58:01; [7]): 2.68 µM
- Kd (HLA-A*26:01; [7]): ≥ 20 µM
- Kd (HLA-A*24:03; [7]): ≥ 20 µM

Sequence: EKDSNHNVL
- Kd (HLA-B*46:01; [8]): ≥ 20 µM
- Kd (HLA-A*02:12; [8]): ≥ 20 µM
- Kd (HLA-A*02:01 [1]; [8]): ≥ 20 µM
- Kd (HLA-A*68:02; [8]): ≥ 20 µM
- Kd (HLA-B*57:01; [8]): ≥ 20 µM
- Kd (HLA-A*23:01; [8]): ≥ 20 µM
- Kd (HLA-A*69:01; [8]): ≥ 20 µM
- Kd (HLA-B*15:17): ≥ 20 µM
- Kd (HLA-B*27:03; [8]): ≥ 20 µM
- Kd (HLA-A*02:16): ≥ 20 µM
- Kd (HLA-A*03:01; [8]): ≥ 20 µM
- Kd (HLA-A*02:03): ≥ 20 µM
- Kd (HLA-B*18:01; [8]): ≥ 20 µM
- Kd (HLA-B*51:01; [8]): ≥ 20 µM
- Kd (HLA-A*02:19; [8]): ≥ 20 µM
- Kd (HLA-A*29:02): ≥ 20 µM
- Kd (HLA-A*02:11): ≥ 20 µM
- Kd (HLA-B*15:01; [8]): ≥ 20 µM
- Kd (HLA-A*26:01; [8]): ≥ 20 µM
- Kd (HLA-A*24:03; [8]): ≥ 20 µM

Sequence: EVKKRDGVK
- IC50 (HLA-B*08:01 [4]): ≥ 211 µM
- IC50 (HLA-A*11:01 [5]): 66.4 µM

Sequence: HILQKTERG
- IC50 (HLA-A*02:01 [6]): ≥ 99.6 µM
- IC50 (HLA-B*08:01 [4]): ≥ 365 µM

Sequence: KLDSGAFTV
- Kd (HLA-C*03:03; source organism: Mycobacterium tuberculosis str. Haarlem): ≥ 20 µM

Sequence: MAVGVVLAL
- Kd (HLA-C*03:03; source organism: Mycobacterium tuberculosis variant bovis BCG str. Pasteur 1173P2): 0.024 µM

Sequence: PTKCGENLY
- Kd (HLA-B*40:01; [9]): ≥ 20 µM
- Kd (HLA-A*02:01 [1]; [9]): ≥ 20 µM
- Kd (HLA-B*27:05; [9]): ≥ 20 µM
- Kd (HLA-A*69:01; [9]): 12.9 µM
- Kd (HLA-B*07:02; [9]): ≥ 20 µM
- Kd (HLA-A*03:01; [9]): ≥ 20 µM
- Kd (HLA-B*35:01; [9]): 5.2 µM
- Kd (HLA-B*08:01 [2]; [9]): ≥ 20 µM
- Kd (HLA-A*01:01; [9]): 7.76 µM
- Kd (HLA-B*44:02; [9]): ≥ 20 µM
- Kd (HLA-B*15:01; [9]): 2.36 µM
- Kd (HLA-A*11:01 [3]; [9]): ≥ 20 µM
- Kd (HLA-A*31:01; [9]): ≥ 20 µM
- Kd (HLA-B*58:01; [9]): ≥ 20 µM
- Kd (HLA-A*26:01; [9]): ≥ 20 µM
- Kd (HLA-A*24:03; [9]): ≥ 20 µM

Sequence: QYEKDPDEL
- Kd (HLA-A*24:02): 4.65 µM
- Kd (HLA-A*23:01; source organism: Amur virus): 11.5 µM
- Kd (HLA-A*24:03; source organism: Amur virus): 13 µM

Sequence: RYVGLYLPF
- Kd (HLA-C*14:02): ≤ 0.001 µM
- Kd (HLA-C*15:02): ≥ 20 µM
- Kd (HLA-A*24:03; source organism: Mycobacterium tuberculosis): 0.0002 µM

Sequence: TMPELAWAV
- Kd (HLA-B*40:01; [10]): ≥ 20 µM
- Kd (HLA-A*02:01 [1]; [10]): 0.0158 µM
- Kd (HLA-B*27:05; [10]): ≥ 20 µM
- Kd (HLA-A*69:01; [10]): 0.0078 µM
- Kd (HLA-B*07:02; [10]): ≥ 20 µM
- Kd (HLA-A*03:01; [10]): ≥ 20 µM
- Kd (HLA-B*35:01; [10]): 0.42 µM
- Kd (HLA-B*08:01 [2]; [10]): 15 µM
- Kd (HLA-A*01:01; [10]): ≥ 20 µM
- Kd (HLA-B*44:02; [10]): ≥ 20 µM
- Kd (HLA-B*15:01; [10]): ≥ 20 µM
- Kd (HLA-A*11:01 [3]; [10]): ≥ 20 µM
- Kd (HLA-A*31:01; [10]): ≥ 20 µM
- Kd (HLA-B*58:01; [10]): ≥ 20 µM
- Kd (HLA-A*26:01; [10]): ≥ 20 µM

Sequence: VVPLYDTPL
- Kd (HLA-B*40:01; [11]): ≥ 20 µM
- Kd (HLA-A*02:01 [1]; [11]): ≥ 20 µM
- Kd (HLA-B*27:05; [11]): ≥ 20 µM
- Kd (HLA-B*07:02; [12]): 8.95 µM
- Kd (HLA-A*03:01; [11]): ≥ 20 µM
- Kd (HLA-B*35:01; [12]): 0.315 µM
- Kd (HLA-B*08:01 [2]; [11]): ≥ 20 µM
- Kd (HLA-A*01:01; [11]): ≥ 20 µM
- Kd (HLA-B*44:02; [11]): ≥ 20 µM
- Kd (HLA-B*15:01; [12]): 1 µM
- Kd (HLA-A*11:01 [3]; [11]): ≥ 20 µM
- Kd (HLA-A*31:01; [11]): ≥ 20 µM
- Kd (HLA-B*58:01; [11]): ≥ 20 µM
- Kd (HLA-A*26:01; [11]): ≥ 20 µM
- Kd (HLA-A*24:03; [11]): ≥ 20 µM

Sequence: YFRNSGMTY
- Kd (HLA-B*40:01; [7]): ≥ 20 µM
- Kd (HLA-A*02:01 [1]; [7]): ≥ 20 µM
- Kd (HLA-B*27:05; [7]): ≥ 20 µM
- Kd (HLA-A*69:01; [7]): ≥ 20 µM
- Kd (HLA-B*07:02; [7]): ≥ 20 µM
- Kd (HLA-A*03:01; [7]): ≥ 20 µM
- Kd (HLA-B*35:01; [7]): 0.11 µM
- Kd (HLA-B*08:01 [2]; [7]): ≥ 20 µM
- Kd (HLA-A*01:01; [7]): 1.46 µM
- Kd (HLA-B*44:02; [7]): ≥ 20 µM
- Kd (HLA-B*15:01; [7]): 0.0853 µM
- Kd (HLA-A*11:01 [3]; [7]): ≥ 20 µM
- Kd (HLA-A*31:01; [7]): ≥ 20 µM
- Kd (HLA-B*58:01; [7]): ≥ 20 µM
- Kd (HLA-A*26:01; [7]): ≥ 20 µM

Sequence: YHMMKDEPV
- IC50 (HLA-A*02:01 [6]): 42.3 µM
- IC50 (HLA-B*08:01 [4]): ≥ 178 µM

Sequence: YLAKLFLDH
- Kd (HLA-B*46:01; [13]): ≥ 20 µM
- Kd (HLA-A*02:12; [13]): ≥ 20 µM
- Kd (HLA-A*68:02; [13]): ≥ 20 µM
- Kd (HLA-B*57:01; [13]): ≥ 20 µM
- Kd (HLA-A*69:01; [13]): ≥ 20 µM
- Kd (HLA-B*27:03; [13]): ≥ 20 µM
- Kd (HLA-B*39:01): ≥ 20 µM
- Kd (HLA-B*18:01; [13]): ≥ 20 µM
- Kd (HLA-B*51:01; [13]): ≥ 20 µM
- Kd (HLA-A*02:19; [13]): ≥ 20 µM
- Kd (HLA-A*26:01; [13]): ≥ 20 µM
